First the molecules themselves.
T1: human GIP receptor (human, UniProt P48546 22-466)
T1 sequence (looked up): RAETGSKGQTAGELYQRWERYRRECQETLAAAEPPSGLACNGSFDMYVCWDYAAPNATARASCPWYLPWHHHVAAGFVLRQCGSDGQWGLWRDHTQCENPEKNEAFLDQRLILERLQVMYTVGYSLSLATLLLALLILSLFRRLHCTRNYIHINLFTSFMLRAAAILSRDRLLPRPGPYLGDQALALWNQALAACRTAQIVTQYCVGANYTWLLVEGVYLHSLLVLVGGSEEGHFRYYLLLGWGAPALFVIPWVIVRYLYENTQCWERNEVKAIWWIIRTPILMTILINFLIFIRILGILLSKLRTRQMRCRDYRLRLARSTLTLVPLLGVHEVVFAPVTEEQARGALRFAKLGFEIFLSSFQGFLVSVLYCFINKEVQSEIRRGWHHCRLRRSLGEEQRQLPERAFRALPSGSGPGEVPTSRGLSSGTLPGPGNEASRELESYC

B1: triple agonist of SEQ ID NO: 67 (peptide)
peptide: Y[Aib]QGTFTSDYSKYLDECAAKDFVQWLLDHHPSSGQPPPS
modifications: bridge (positions not given here); ends not checked; also: ring formation between two underlined residues

Bridge positions count the residues as written; N and C are the ends. Square brackets hold non-standard residues; d marks the D form. Ends that are not written are not given here. * marks the point of attachment. Acetyl(2-(4-imidazolyl)) = O=C(Cc1c[nH]cn1)*; Aib = CC(C)(N)C(=O)O

Chain of human GCG receptor (P47871 26-477): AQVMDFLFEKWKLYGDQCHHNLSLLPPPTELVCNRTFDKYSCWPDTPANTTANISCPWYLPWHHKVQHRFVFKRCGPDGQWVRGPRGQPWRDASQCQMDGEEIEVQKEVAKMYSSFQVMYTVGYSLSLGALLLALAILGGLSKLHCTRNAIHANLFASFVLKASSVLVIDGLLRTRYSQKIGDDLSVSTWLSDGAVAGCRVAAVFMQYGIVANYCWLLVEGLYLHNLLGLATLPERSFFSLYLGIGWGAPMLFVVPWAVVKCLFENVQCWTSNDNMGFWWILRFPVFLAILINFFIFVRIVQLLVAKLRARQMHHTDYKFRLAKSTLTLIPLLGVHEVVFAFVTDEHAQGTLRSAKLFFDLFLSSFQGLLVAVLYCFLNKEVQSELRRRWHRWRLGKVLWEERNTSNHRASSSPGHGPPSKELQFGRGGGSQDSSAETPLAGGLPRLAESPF

In one assay the target is T1, human GIP receptor. The assay can be described thus: cell-based or functional assay.
With Y[Aib]QGTFTSDYSKYLDEKAAKEFVQWLLDHHPSSGQPPPSC (bridge 16-20) [triple agonist of SEQ ID NO: 75], the “In vitro activity compared with native peptide (%) vs GIP (cAMP EC50)” value (from here on “In vitro activity … (%) vs GIP (cAMP EC50)”) turned out to be 18%.

Consider B1, for which the “In vitro activity … (%) vs GIP (cAMP EC50)” value was 39.8%.

Regarding Y[Aib]QGTFTSDYSKCLDEKRAKDFVQWLLDHHPSSGQPPPS (bridge 16-20) [triple agonist of SEQ ID NO: 70], the “In vitro activity … (%) vs GIP (cAMP EC50)” value came out at 64.4%.

Consider Y[Aib]QGTFTSDCSKYLDERAAKDFVQWLLDHHPSSGQPPPS (bridge 16-20) [triple agonist of SEQ ID NO: 72], for which the “In vitro activity … (%) vs GIP (cAMP EC50)” value was 1.6%.

H[Aib]QGTFTSDYSKYLDEKRQKEFVQWLLDTKC (bridge 16-20) [triple agonist of SEQ ID NO: 78]: the “In vitro activity … (%) vs GIP (cAMP EC50)” value is 0.12%.

For the molecule Y[Aib]QGTFTSDYSKYLDERACKDFVQWLLDHHPSSGQPPPS (bridge 16-20) [triple agonist of SEQ ID NO: 71], the “In vitro activity … (%) vs GIP (cAMP EC50)” value was determined as 94.7%.

In the case of H[Aib]QGTFTSDVSKYLDGQAAQEFVAWLLKGC [triple agonist of SEQ ID NO: 8], the “In vitro activity … (%) vs GIP (cAMP EC50)” value is < 0.1%.

On to [Acetyl(2-(4-imidazolyl))][Aib]QGTFTSDYSKYLDEKRQKEFVQWLLNTC (bridge 16-20) [triple agonist of SEQ ID NO: 81], for which the “In vitro activity … (%) vs GIP (cAMP EC50)” value was < 0.1%.

For Y[Aib]QGTFTSDYSKYLDECAAKEFVQWLLDHHPSSGQPPPS (bridge 16-20) [triple agonist of SEQ ID NO: 64], the “In vitro activity … (%) vs GIP (cAMP EC50)” value is 92.9%.

As for H[Aib]EGTFTSDYSIAMDEIHQKDFVNWLLAQKC (bridge 16-20) [triple agonist of SEQ ID NO: 79], the “In vitro activity … (%) vs GIP (cAMP EC50)” value worked out at 1.4%.

With [Acetyl(2-(4-imidazolyl))][Aib]QGTFTSDYSKYLDEKRQKEFVQWLLDTC (bridge 16-20) [triple agonist of SEQ ID NO: 82], the “In vitro activity … (%) vs GIP (cAMP EC50)” value was < 0.1%.

Take Y[Aib]QGTFTSDYSKYLDEKRAKDFVQWLLDHHPSSGQPPPSC (bridge 16-20) [triple agonist of SEQ ID NO: 76]: the “In vitro activity … (%) vs GIP (cAMP EC50)” value is 11.7%.

A further assay addresses human GLP-1 receptor (human, UniProt P43220 24-463). The assay can be described thus: cell-based or functional assay.
On to Y[Aib]QGTFTSDYSKYLDEKAAKEFVQWLLDHHPSSGQPPPSC (bridge 16-20) [triple agonist of SEQ ID NO: 75], for which the “In vitro activity compared with native peptide (%) vs GLP-1 (cAMP EC50)” value (“In vitro activity … (%) vs GLP-1 (cAMP EC50)” for short) worked out at 35.1%.

Regarding B1, the “In vitro activity … (%) vs GLP-1 (cAMP EC50)” value came to 28.5%.

Consider Y[Aib]QGTFTSDYSKCLDEKRAKDFVQWLLDHHPSSGQPPPS (bridge 16-20) [triple agonist of SEQ ID NO: 70], for which the “In vitro activity … (%) vs GLP-1 (cAMP EC50)” value was determined as 15.1%.

For Y[Aib]QGTFTSDCSKYLDERAAKDFVQWLLDHHPSSGQPPPS (bridge 16-20) [triple agonist of SEQ ID NO: 72], the “In vitro activity … (%) vs GLP-1 (cAMP EC50)” value came to 11.5%.

Turning to H[Aib]QGTFTSDYSKYLDEKRQKEFVQWLLDTKC (bridge 16-20) [triple agonist of SEQ ID NO: 78], the “In vitro activity … (%) vs GLP-1 (cAMP EC50)” value worked out at 51%.

Regarding Y[Aib]QGTFTSDYSKYLDERACKDFVQWLLDHHPSSGQPPPS (bridge 16-20) [triple agonist of SEQ ID NO: 71], the “In vitro activity … (%) vs GLP-1 (cAMP EC50)” value turned out to be 90.1%.

As for H[Aib]QGTFTSDVSKYLDGQAAQEFVAWLLKGC [triple agonist of SEQ ID NO: 8], the “In vitro activity … (%) vs GLP-1 (cAMP EC50)” value amounted to 14.2%.

Turning to [Acetyl(2-(4-imidazolyl))][Aib]QGTFTSDYSKYLDEKRQKEFVQWLLNTC (bridge 16-20) [triple agonist of SEQ ID NO: 81], the “In vitro activity … (%) vs GLP-1 (cAMP EC50)” value came to 7.8%.

On to Y[Aib]QGTFTSDYSKYLDECAAKEFVQWLLDHHPSSGQPPPS (bridge 16-20) [triple agonist of SEQ ID NO: 64], for which the “In vitro activity … (%) vs GLP-1 (cAMP EC50)” value stood at 64.6%.

On to H[Aib]EGTFTSDYSIAMDEIHQKDFVNWLLAQKC (bridge 16-20) [triple agonist of SEQ ID NO: 79], for which the “In vitro activity … (%) vs GLP-1 (cAMP EC50)” value stood at 41.5%.

Take [Acetyl(2-(4-imidazolyl))][Aib]QGTFTSDYSKYLDEKRQKEFVQWLLDTC (bridge 16-20) [triple agonist of SEQ ID NO: 82]: the “In vitro activity … (%) vs GLP-1 (cAMP EC50)” value turned out to be 9.5%.

Turning to Y[Aib]QGTFTSDYSKYLDEKRAKDFVQWLLDHHPSSGQPPPSC (bridge 16-20) [triple agonist of SEQ ID NO: 76], the “In vitro activity … (%) vs GLP-1 (cAMP EC50)” value was 10.3%.

A further assay has as its target human GCG receptor (human, UniProt P47871 26-477). The assay can be described thus: cell-based or functional assay.
Take Y[Aib]QGTFTSDYSKYLDEKAAKEFVQWLLDHHPSSGQPPPSC (bridge 16-20) [triple agonist of SEQ ID NO: 75]: the “In vitro activity compared with native peptide (%) vs Glucagon (cAMP EC50)” value (shortened to “In vitro activity … (%) vs Glucagon (cAMP EC50)”) turned out to be 8.5%.

With B1, the “In vitro activity … (%) vs Glucagon (cAMP EC50)” value is 46.2%.

Y[Aib]QGTFTSDYSKCLDEKRAKDFVQWLLDHHPSSGQPPPS (bridge 16-20) [triple agonist of SEQ ID NO: 70]: the “In vitro activity … (%) vs Glucagon (cAMP EC50)” value was determined as 71.3%.

For the molecule Y[Aib]QGTFTSDCSKYLDERAAKDFVQWLLDHHPSSGQPPPS (bridge 16-20) [triple agonist of SEQ ID NO: 72], the “In vitro activity … (%) vs Glucagon (cAMP EC50)” value amounted to 1%.

Take H[Aib]QGTFTSDYSKYLDEKRQKEFVQWLLDTKC (bridge 16-20) [triple agonist of SEQ ID NO: 78]: the “In vitro activity … (%) vs Glucagon (cAMP EC50)” value is 14%.

Y[Aib]QGTFTSDYSKYLDERACKDFVQWLLDHHPSSGQPPPS (bridge 16-20) [triple agonist of SEQ ID NO: 71]: the “In vitro activity … (%) vs Glucagon (cAMP EC50)” value came to 12.7%.

On to H[Aib]QGTFTSDVSKYLDGQAAQEFVAWLLKGC [triple agonist of SEQ ID NO: 8], for which the “In vitro activity … (%) vs Glucagon (cAMP EC50)” value stood at 0.1%.

As to [Acetyl(2-(4-imidazolyl))][Aib]QGTFTSDYSKYLDEKRQKEFVQWLLNTC (bridge 16-20) [triple agonist of SEQ ID NO: 81], the “In vitro activity … (%) vs Glucagon (cAMP EC50)” value worked out at 0.3%.

Consider Y[Aib]QGTFTSDYSKYLDECAAKEFVQWLLDHHPSSGQPPPS (bridge 16-20) [triple agonist of SEQ ID NO: 64], for which the “In vitro activity … (%) vs Glucagon (cAMP EC50)” value worked out at 60.1%.

As for H[Aib]EGTFTSDYSIAMDEIHQKDFVNWLLAQKC (bridge 16-20) [triple agonist of SEQ ID NO: 79], the “In vitro activity … (%) vs Glucagon (cAMP EC50)” value turned out to be 4.9%.

As for [Acetyl(2-(4-imidazolyl))][Aib]QGTFTSDYSKYLDEKRQKEFVQWLLDTC (bridge 16-20) [triple agonist of SEQ ID NO: 82], the “In vitro activity … (%) vs Glucagon (cAMP EC50)” value was 1.1%.

Turning to Y[Aib]QGTFTSDYSKYLDEKRAKDFVQWLLDHHPSSGQPPPSC (bridge 16-20) [triple agonist of SEQ ID NO: 76], the “In vitro activity … (%) vs Glucagon (cAMP EC50)” value is 47.6%.

The values above are taken from US20240293512A1 (HANMI PHARM, published 2024).
